B1: murine LPHN3^Lec-Olf, wild type, biotinylated at a C-terminal Avi-Tag [modified: biotin on the C-terminal Avi-Tag (enzymatic); biotin on the C-terminal Avi-Tag (enzymatic)] [murine] / murine FLRT2 full ectodomain, wild … (parent)
chain 1: PIPMAVVRRELSCESYPIELRCPGTDVIMIESANYGRTDDKICDSDPAQMENIRCYLPDAYKIMSQRCNNRTQCAVVAGPDVFPDPCPGTYKYLEVQYECVPYKVEQKVFLCPGLLKGVYQSEHLFESDHQSGAWCKDPLQASDKIYYMPWTPYRTDTLTEYSSKDDFIAGRPTTTYKLPHRVDGTGFVVYDGALFFNKERTRNIVKFDLRTRIKSGEAIIANANYHDTSPYRWGGKSDIDLAVDENGLWVIYATEQNNGKIVISQLNPYTLRIEGTWDTAYDKRSASNAFMICGILYVVKSVYEDDDNEATGNKIDYIYNTDQSKDSLVDVPFPNSYQYIAAVDYNPRDNLLYVWNNYHVVKYSLDFGPLD
chain 2: ACPSVCRCDRNFVYCNERSLTSVPLGIPEGVTVLYLHNNQINNAGFPAELHNVQSVHTVYLYGNQLDEFPMNLPKNVRVLHLQENNIQTISRAALAQLLKLEELHLDDNSISTVGVEDGAFREAISLKLLFLSKNHLSSVPVGLPVDLQELRVDENRIAVISDMAFQNLTSLERLIVDGNLLTNKGIAEGTFSHLTKLKEFSIVRNSLSHPPPDLPGTHLIRLYLQDNQINHIPLTAFANLRKLERLDISNNQLRMLTQGVFDHLSNLKQLTARNNPWFCDCSIKWVTEWLKYIPSSLNVRGFMCQGPEQVRGMAVRELNMNLLSCPTTTPGLPVFTPAPSTVSPTTQSPTLSVPSPSRGSVPPAPTPSKLPTIPDWDGRERVTPPISERIQLSIHFVNDTSIQVSWLSLFTVMAYKLTWVKMGHSLVGGIVQERIVSGEKQHLSLVNLEPRSTYRICLVPLDAFNYRTVEDTICSEATTHASYLNNGSNTASSHEQTTSHSMGSP

Variants of: B1
Experiment: SPR
Conditions: with murine FLRT2 full ectodomain; for Kd: biotinylated LPHN3 Lec-Olf immobilized on streptavidin-coated Biacore chips, FLRT2 ectodomain injected as analyte, 1:1 binding model, parent: 18 nM; for response: maximum response at the highest FLRT2 ectodomain concentration plotted (about 2.3 µM), parent: 450, read off a plot

Row | Kd [nM] | response [RU] | Variant
1 | 460 | 400 | chain 1 PIPMAVVRRELSCESYPIELRCPGTDVIMIESANYGRTDDKICDSDPAQMENIRCYLPDAYKIMSQRCNNRTQCAVVAGPDVFPDPCPGTYKYLEVQYECVPYKVEQKVFLCPGLLKGVYQSEHLFESDHQSGAWCKDPLQASDKIYYMPWTPYRTDTLTEYSSKDDFIAGRPTTNYTLPHRVDGTGFVVYDGALFFNKERTRNIVKFDLRTRIKSGEAIIANANYHDTSPYRWGGKSDIDLAVDENGLWVIYATEQNNGKIVISQLNPYTLRIEGTWDTAYDKRSASNAFMICGILYVVKSVYEDDDNEATGNKIDYIYNTDQSKDSLVDVPFPNSYQYIAAVDYNPRDNLLYVWNNYHVVKYSLDFGPLD [chain 1 T176N K178T]
2 | 980 | 460 | chain 1 PIPMAVVRRELSCESYPIELRCPGTDVIMIESANYGRTDDKICDSDPAQMENIRCYLPDAYKIMSQRCNNRTQCAVVAGPDVFPDPCPGTYKYLEVQYECVPYKVEQKVFLCPGLLKGVYQSEHLFESDHQSGAWCKDPLQASDKIYYMPWTNYTTDTLTEYSSKDDFIAGRPTTTYKLPHRVDGTGFVVYDGALFFNKERTRNIVKFDLRTRIKSGEAIIANANYHDTSPYRWGGKSDIDLAVDENGLWVIYATEQNNGKIVISQLNPYTLRIEGTWDTAYDKRSASNAFMICGILYVVKSVYEDDDNEATGNKIDYIYNTDQSKDSLVDVPFPNSYQYIAAVDYNPRDNLLYVWNNYHVVKYSLDFGPLD [chain 1 P153N R155T]

Reference: PMC4396693, “Structural Basis of Latrophilin-FLRT Interaction” (Structure(London, England:1993), 2015)
